Data reported in patent US5968815.

Experiments:
[1] = molecular target: Nef (SIV) peptide 84-96 (SIV strain Mac251)
[2] = molecular target: Nef (SIV) peptide 221-235 (SIV strain Mac251)
[3] = molecular target: Nef (SIV) peptide 40-60 (SIV strain Mac251)
[4] = molecular target: Nef (SIV) peptide 1-15 (SIV strain Mac251)
[5] = molecular target: Nef (SIV) peptide 16-30 (SIV strain Mac251)
mouse CD8 (LYT2) (mouse) = mouse CD8 (LYT2) (mouse) (UniProt P01731)
mouse CD4 (L3T4) (mouse) = mouse CD4 (L3T4) (mouse) (UniProt P06332)

Row | Substance | proliferation of lymph node cells (cpm) [1] [cpm] | proliferation of lymph node cells (cpm) [2] [cpm] | proliferation of lymph node cells (cpm) [3] [cpm] | proliferation of lymph node cells (cpm) [4] [cpm] | proliferation of lymph node cells (cpm) [5] [cpm] | inhibition of the proliferative response of LN cells to beta-galactosidase (mouse CD8 (LYT2) (mouse)) [%] | inhibition of the proliferative response of LN cells to beta-galactosidase (mouse CD4 (L3T4) (mouse)) [%]
1 | lymph node cells of Balb/c mice immunised with non-recombinant BCG strain 1173P2 (cells without a defined receptor) | 5000 | < 2500 | < 2500 | < 2500 | < 2500 | – | –
2 | lymph node cells of unimmunized rats (control of FIG. 14) (cells without a defined receptor) | < 250 | < 250 | < 250 | < 250 | < 250 | – | –
3 | anti-CD8 monoclonal antibody, hybridoma H35 17-2 (rat anti-mouse LYT2) | – | – | – | – | – | 30 | –
4 | anti-CD4 monoclonal antibody, hybridoma GK 1-5 (rat anti-mouse L3T4) | – | – | – | – | – | – | 70
